System: T1, C[C@H]1CCCC(=O)CCC/C=C/c2cc(O)cc(O)c2C(=O)O1
T1 construct: full-length ORF (792 bp, 264 aa, 29 kDa) in pPICZalphaA with alpha-factor secretion signal, secreted from Pichia pastoris X33; ~35 kDa band for Ser-Cr2
Test: HPLC, ZEN degradation; Lineweaver-Burk
Type: biochemical, Clonostachys rosea
Details: 20 mM Tris-HCl pH 8.0, 30 °C

Substance: Cr2zen (Clonostachys rosea)
- Km: 75.9 ± 2.1 µM
